Measurements: paper PMC8930179

Biological target: B38-CAP
Assay: SEC

B38-CAP (enzyme)
stoichiometry N: 2
